Results reported in patent publication US20140072613A1, “Compositions and Methods for Treating Cutaneous Scarring” (priority 2012, published 2014).

Legend:
Assay in all cases: biochemical
Type in all cases: biochemical
266 human kinases [1] = biological target: 266 human kinases (Homo sapiens, UniProt O43353); details: RIPK2(h); 100 μM
In short: (§1)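 Radiometric filter-binding format: a positively charged substrate takes up radiolabelled phosphate from ATP unless the kinase is inhibited, then is captured on a negatively charged filter membrane. Counts from scintillation are expressed relative to a 100% activity control.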

266 human kinases [2] = biological target: T1, 266 human kinases (Homo sapiens, UniProt P42681); details: Txk(h); 100 μM
T1 sequence (P42681 1-527): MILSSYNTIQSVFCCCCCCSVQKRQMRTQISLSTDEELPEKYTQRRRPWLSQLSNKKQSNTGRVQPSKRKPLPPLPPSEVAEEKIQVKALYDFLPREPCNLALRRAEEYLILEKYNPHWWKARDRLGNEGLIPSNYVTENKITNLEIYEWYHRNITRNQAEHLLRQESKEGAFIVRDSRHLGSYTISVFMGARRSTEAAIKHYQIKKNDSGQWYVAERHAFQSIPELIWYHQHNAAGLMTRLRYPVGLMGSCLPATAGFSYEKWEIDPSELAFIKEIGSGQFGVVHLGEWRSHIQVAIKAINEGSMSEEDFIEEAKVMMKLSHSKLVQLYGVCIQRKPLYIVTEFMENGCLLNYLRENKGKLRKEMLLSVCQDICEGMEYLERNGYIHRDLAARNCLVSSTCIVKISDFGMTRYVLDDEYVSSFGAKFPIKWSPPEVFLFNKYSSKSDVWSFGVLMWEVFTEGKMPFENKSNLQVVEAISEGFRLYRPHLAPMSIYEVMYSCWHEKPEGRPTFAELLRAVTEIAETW
In short: as §1

266 human kinases [3] = biological target: 266 human kinases (Homo sapiens, UniProt P43405); details: Syk(h); 100 μM
In short: as §1

266 human kinases [4] = biological target: T2, 266 human kinases (Homo sapiens, UniProt P54753); details: EphB3(h); 100 μM
T2 sequence (P54753 34-998): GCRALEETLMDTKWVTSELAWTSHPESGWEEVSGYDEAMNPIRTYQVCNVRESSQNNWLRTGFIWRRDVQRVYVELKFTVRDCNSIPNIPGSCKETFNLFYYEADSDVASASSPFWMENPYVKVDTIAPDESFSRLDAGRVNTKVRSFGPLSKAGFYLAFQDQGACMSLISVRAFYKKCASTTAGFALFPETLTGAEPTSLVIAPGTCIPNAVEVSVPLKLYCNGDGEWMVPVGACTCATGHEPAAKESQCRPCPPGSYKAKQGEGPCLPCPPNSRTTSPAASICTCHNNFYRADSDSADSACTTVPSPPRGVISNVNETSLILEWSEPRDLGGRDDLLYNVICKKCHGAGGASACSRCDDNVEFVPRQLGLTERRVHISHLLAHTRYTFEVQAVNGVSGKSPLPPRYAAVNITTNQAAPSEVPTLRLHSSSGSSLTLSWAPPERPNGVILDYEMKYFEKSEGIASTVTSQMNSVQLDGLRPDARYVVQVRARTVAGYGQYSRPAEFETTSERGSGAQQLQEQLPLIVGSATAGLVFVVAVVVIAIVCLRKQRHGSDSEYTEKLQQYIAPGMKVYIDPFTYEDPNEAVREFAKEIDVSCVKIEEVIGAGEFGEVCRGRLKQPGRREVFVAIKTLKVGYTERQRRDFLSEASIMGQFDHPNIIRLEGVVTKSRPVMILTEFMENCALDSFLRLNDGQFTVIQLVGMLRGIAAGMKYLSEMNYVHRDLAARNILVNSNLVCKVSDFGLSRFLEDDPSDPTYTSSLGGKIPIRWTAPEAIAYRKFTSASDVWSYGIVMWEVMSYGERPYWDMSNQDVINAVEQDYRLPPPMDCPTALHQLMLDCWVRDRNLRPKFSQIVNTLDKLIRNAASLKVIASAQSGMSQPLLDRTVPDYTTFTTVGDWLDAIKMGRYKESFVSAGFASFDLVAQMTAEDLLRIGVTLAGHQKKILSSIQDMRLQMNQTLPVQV
In short: as §1

266 human kinases [5] = biological target: T3, 266 human kinases (Homo sapiens, UniProt P54762); details: EphB1(h); 100 μM
T3 sequence (P54762 18-984): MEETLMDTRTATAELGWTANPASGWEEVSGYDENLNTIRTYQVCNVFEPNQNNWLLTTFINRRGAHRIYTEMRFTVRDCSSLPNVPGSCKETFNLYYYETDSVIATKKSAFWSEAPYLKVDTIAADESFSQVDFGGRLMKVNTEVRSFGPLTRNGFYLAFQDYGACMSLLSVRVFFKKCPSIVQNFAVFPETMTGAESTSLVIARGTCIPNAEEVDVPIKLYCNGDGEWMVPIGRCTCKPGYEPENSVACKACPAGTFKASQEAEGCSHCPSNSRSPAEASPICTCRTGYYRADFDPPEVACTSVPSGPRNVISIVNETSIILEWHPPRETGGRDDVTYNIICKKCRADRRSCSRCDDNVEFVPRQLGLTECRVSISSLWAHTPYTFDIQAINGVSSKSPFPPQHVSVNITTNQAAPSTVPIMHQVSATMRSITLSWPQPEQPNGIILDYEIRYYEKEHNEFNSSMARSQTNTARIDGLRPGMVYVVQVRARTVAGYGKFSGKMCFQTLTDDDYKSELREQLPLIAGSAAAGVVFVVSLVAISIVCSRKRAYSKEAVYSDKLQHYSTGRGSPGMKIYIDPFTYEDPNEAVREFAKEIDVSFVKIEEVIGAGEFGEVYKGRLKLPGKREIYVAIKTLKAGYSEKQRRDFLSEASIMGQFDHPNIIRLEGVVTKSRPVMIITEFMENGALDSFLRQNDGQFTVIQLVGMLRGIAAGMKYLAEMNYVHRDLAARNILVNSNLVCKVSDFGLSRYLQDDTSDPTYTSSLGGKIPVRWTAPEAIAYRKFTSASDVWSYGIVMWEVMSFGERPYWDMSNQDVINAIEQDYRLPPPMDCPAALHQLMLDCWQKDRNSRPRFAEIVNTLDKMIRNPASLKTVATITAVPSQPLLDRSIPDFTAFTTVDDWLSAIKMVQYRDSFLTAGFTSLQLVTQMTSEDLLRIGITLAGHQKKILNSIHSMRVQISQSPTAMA
In short: as §1

266 human kinases [6] = biological target: 266 human kinases (Homo sapiens, UniProt Q16513); details: PRK2(h); 100 μM
In short: as §1

266 human kinases [7] = biological target: 266 human kinases (Homo sapiens, UniProt Q16539, T106M); details: SAPK2a(T106M)(h); 100 μM
In short: as §1

266 human kinases [8] = biological target: 266 human kinases (Homo sapiens, UniProt Q8WTQ7); details: GRK7(h); 100 μM
In short: as §1

Sequence of 266 human kinases (Homo sapiens, UniProt O43353) (O43353 whole entry): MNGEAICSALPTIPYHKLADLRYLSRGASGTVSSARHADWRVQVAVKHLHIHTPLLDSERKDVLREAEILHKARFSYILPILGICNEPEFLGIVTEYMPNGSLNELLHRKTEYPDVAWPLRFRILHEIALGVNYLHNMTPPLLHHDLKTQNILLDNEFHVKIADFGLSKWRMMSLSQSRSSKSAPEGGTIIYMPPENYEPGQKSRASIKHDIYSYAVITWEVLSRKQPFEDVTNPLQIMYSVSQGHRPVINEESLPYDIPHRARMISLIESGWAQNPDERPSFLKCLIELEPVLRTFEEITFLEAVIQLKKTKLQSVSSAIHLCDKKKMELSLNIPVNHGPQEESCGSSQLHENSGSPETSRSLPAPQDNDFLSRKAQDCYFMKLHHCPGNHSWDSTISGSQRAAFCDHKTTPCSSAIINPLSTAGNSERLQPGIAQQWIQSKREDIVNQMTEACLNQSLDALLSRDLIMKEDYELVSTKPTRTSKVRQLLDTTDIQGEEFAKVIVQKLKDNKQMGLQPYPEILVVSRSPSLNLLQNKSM
Sequence of 266 human kinases (Homo sapiens, UniProt Q16539, T106M) (Q16539 whole entry T106M): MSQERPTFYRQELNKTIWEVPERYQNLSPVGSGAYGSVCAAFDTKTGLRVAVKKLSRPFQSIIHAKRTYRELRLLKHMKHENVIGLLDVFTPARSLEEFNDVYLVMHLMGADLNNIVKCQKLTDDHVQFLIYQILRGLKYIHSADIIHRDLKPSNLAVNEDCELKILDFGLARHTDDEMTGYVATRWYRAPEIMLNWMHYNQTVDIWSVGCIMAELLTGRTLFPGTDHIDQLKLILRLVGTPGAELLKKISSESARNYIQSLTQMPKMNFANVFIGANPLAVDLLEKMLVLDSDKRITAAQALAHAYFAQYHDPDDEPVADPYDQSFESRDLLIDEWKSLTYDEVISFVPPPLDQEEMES
Sequence of 266 human kinases (Homo sapiens, UniProt Q8WTQ7) (Q8WTQ7 whole entry): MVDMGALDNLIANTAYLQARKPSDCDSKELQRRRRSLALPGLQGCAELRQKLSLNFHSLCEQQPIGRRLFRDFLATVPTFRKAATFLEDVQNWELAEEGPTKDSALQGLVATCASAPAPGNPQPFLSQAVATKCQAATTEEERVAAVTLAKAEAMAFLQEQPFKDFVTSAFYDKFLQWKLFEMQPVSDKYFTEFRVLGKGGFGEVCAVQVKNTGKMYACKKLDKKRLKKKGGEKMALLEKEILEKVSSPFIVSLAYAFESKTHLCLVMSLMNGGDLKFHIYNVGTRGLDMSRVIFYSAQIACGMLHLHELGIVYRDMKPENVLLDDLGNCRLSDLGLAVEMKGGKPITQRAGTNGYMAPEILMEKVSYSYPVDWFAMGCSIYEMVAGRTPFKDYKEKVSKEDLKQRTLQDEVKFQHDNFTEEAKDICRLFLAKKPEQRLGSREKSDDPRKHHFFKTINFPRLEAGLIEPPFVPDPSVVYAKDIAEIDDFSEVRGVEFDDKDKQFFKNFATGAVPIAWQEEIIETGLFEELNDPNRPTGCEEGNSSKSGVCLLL
Sequence of 266 human kinases (Homo sapiens, UniProt Q16513) (Q16513 whole entry): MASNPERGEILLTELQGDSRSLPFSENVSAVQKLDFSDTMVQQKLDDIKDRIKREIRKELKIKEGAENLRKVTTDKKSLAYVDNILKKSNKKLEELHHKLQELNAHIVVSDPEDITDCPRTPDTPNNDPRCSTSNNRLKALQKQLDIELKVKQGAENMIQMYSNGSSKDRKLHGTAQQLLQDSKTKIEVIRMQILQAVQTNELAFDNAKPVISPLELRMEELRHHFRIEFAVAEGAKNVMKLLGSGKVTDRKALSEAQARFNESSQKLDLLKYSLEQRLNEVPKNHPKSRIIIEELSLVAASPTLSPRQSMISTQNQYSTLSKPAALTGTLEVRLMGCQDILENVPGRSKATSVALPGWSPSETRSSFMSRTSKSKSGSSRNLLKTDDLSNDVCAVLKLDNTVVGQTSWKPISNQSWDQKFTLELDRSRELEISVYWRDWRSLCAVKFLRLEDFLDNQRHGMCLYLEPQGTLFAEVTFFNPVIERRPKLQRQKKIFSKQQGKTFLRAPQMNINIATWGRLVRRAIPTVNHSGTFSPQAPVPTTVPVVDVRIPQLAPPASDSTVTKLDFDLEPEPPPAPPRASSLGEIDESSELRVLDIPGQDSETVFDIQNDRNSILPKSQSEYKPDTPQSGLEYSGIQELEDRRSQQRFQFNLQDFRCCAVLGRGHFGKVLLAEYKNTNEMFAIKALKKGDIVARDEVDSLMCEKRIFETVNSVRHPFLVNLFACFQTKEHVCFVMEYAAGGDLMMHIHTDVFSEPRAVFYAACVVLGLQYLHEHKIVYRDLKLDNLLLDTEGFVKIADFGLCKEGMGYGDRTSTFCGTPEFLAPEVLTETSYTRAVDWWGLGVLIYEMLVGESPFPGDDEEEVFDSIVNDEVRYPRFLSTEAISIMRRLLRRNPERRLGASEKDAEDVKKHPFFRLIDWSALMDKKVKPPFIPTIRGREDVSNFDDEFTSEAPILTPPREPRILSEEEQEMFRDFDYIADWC

Sequence	% activity (266 human kinases [1]) [%]	% activity (266 human kinases [2]) [%]	% activity (266 human kinases [3]) [%]	% activity (266 human kinases [4]) [%]	% activity (266 human kinases [5]) [%]	% activity (266 human kinases [6]) [%]	% activity (266 human kinases [7]) [%]	% activity (266 human kinases [8]) [%]
HRRIKAWLKKIKALARQLGVAA (mammal) [MMI-0500]	30	10	5	79	37	7	32	93
YARAAARQARAKALNRQLGVA (mammal) [MMI-0200]	98	98	36	128	95	74	100	124
